Molecular target: the molecule itself
Assay: SEC; gel filtration of recombinant NPM(1-183) from E. coli to separate oligomeric and monomeric forms; fractions checked by SDS-PAGE with CBB staining

B1: Recombinant NPM(1-183), the 183 NH2-terminal amino acids of nucleophosmin 1 (domain or fragment, human, UniProt P06748 1-183, looked up)
chain: MEDSMDMDMSPLRPQNYLFGCELKADKDYHFKVDNDENEHQLSLRTVSLGAGAKDELHIVEAEAMNYEGSPIKVTLATLKMSVQPTVSLGGFEITPPVVLRLKCGSGPVHISGQHLVAVEEDAESEDEEEEDVKLLSISGKRSAPGGGSKVPQKKVKLAADEDDDDDDEEDDDEDDDDDDFDD
notes: nucleophosmin 1 (NPM/B23), clone from a cDNA library of the human multiple myeloma cell line KMS34; also called NPM/B23; 1-183 NPM; source: E. coli, partially purified, fractionated by gel filtration
  binding result: binds

Reference: paper PMC3382596, “A Phthalimide Derivative That Inhibits Centrosomal Clustering Is Effective on Multiple Myeloma” (PLoS ONE, 2012)
